Results: the supplement of paper PMC9233669
Variants at the floor of the assay were thinned out.

Legend:
biotinyl-Trp-oxazolone = test: self-aminoacylation, catalytic enhancement (BWO) (fold over background); higher = more active; k-Seq, kA / k0A0; sequences stand for … in GGGAAUGGAUCCACAUCUACGAAUUC…UUCACUGCAGACUUGACGAAGCUG
Summary of the method: (§1)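 The uncatalyzed rate is the low-activity peak of a bimodal Gaussian fit, and catalytic enhancement is median kA divided by it. The kA values came from pseudo-first-order fits, with 1000 bootstraps, of per-sequence fraction reacted measured by streptavidin capture, triplicate qPCR and Illumina sequencing. Mutagenized RNA pools with a 21-nt variable region (0.43 μM) were reacted with each biotinyl-aminoacyl-oxazolone at 2–1250 μM in 50 μL HEPES/NaCl/KCl/MgCl2/CaCl2 buffer with 5% acetonitrile, pH 6.9–7.0, for 90 minutes at room temperature.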

biotinyl-Ile-oxazolone = test: self-aminoacylation, catalytic enhancement (BIO) (fold over background); higher = more active; k-Seq, kA / k0A0; sequences stand for … in GGGAAUGGAUCCACAUCUACGAAUUC…UUCACUGCAGACUUGACGAAGCUG
Summary of the method: as §1

biotinyl-Val-oxazolone = test: self-aminoacylation, catalytic enhancement (BVO) (fold over background); higher = more active; k-Seq, kA / k0A0; sequences stand for … in GGGAAUGGAUCCACAUCUACGAAUUC…UUCACUGCAGACUUGACGAAGCUG
Summary of the method: as §1

biotinyl-Phe-oxazolone = test: self-aminoacylation, catalytic enhancement (BFO) (fold over background); higher = more active; k-Seq, kA / k0A0; sequences stand for … in GGGAAUGGAUCCACAUCUACGAAUUC…UUCACUGCAGACUUGACGAAGCUG
Summary of the method: as §1

biotinyl-Leu-oxazolone = test: self-aminoacylation, catalytic enhancement (BLO) (fold over background); higher = more active; k-Seq, kA / k0A0; sequences stand for … in GGGAAUGGAUCCACAUCUACGAAUUC…UUCACUGCAGACUUGACGAAGCUG
Summary of the method: as §1

biotinyl-Met-oxazolone = test: self-aminoacylation, catalytic enhancement (BMO) (fold over background); higher = more active; k-Seq, kA / k0A0; sequences stand for … in GGGAAUGGAUCCACAUCUACGAAUUC…UUCACUGCAGACUUGACGAAGCUG
Summary of the method: as §1

Row | Sequence | self-aminoacylation (biotinyl-Trp-oxazolone) | self-aminoacylation (biotinyl-Ile-oxazolone) | self-aminoacylation (biotinyl-Val-oxazolone) | self-aminoacylation (biotinyl-Phe-oxazolone) | self-aminoacylation (biotinyl-Leu-oxazolone) | self-aminoacylation (biotinyl-Met-oxazolone)
1 | CUACUCCGAACAAUCGGUCUG [Fam1A.1 aminoacylation ribozyme variant] | 0.806 | 0.847 | 0.812 | 0.826 | 0.889 | 0.668
2 | AUUACUCUUGUCAUCGAGUGA [Fam2.1 aminoacylation ribozyme variant] | 7.7 | 3.58 | 3.45 | 22 | 6.33 | 6.03
3 | AUUCACCUAGGUCGACGGGUG [Fam2.2 aminoacylation ribozyme variant] | 2.19 | 1.88 | 1.87 | 13.3 | 3.27 | 2.93
4 | CAACACUUCAAGCAAGCGGUC [Fam1B.1 aminoacylation ribozyme variant] | 0.593 | 1.1 | 0.953 | 0.831 | 1.25 | 1.24
5 | AUUUCUCUGGUCAUCGAGUGA [Fam2.1 aminoacylation ribozyme variant] | 7.1 | 3.1 | 3.2 | 20.5 | 5.82 | 5.74
6 | AAGUUUCGUAAUAGUCGCAAG [Fam3.1 aminoacylation ribozyme variant] | 1.61 | 1.63 | 1.33 | 2.26 | 1.78 | 1.27
7 | AUUUCCCUGGUCAUCGAGUAA [Fam2.1 aminoacylation ribozyme variant] | 2.37 | 1.56 | 1.83 | 3.9 | 2.52 | 2.39
8 | AACUUUGCUAAUAGGCGCAAG [Fam3.1 aminoacylation ribozyme variant] | 1.96 | 2.36 | 2.05 | 3.02 | 1.79 | 1.7
9 | AUUCACCUAGGUCAUCGAUUG [Fam2.2 aminoacylation ribozyme variant] | 0.489 | 0.512 | 0.586 | 0.422 | 0.502 | 0.539
10 | CCACACUUCAAGCAAGCUGUC [Fam1B.1 aminoacylation ribozyme variant] | 0.346 | 0.504 | 0.565 | 0.716 | 0.404 | 0.451
11 | ACUACCCUUGUCAUCGAGUGA [Fam2.1 aminoacylation ribozyme variant] | 6.54 | 3.28 | 3.24 | 28.7 | 6.34 | 6.22
12 | AUGUUUGCUAAUAGUCGCAGG [Fam3.1 aminoacylation ribozyme variant] | 1.95 | 1.54 | 1.33 | 2.47 | 1.8 | 1.76
13 | AGGUUUGCUAACAGUCGCAAG [Fam3.1 aminoacylation ribozyme variant] | 4.91 | 1.57 | 1.25 | 15.2 | 1.66 | 1.68
14 | AUUGACCUAGGUCAUGGGGUG [Fam2.2 aminoacylation ribozyme variant] | 3.74 | 3.08 | 2.9 | 17 | 3.32 | 2.92
15 | AUACACCUAGGUCAUCGGUUG [Fam2.2 aminoacylation ribozyme variant] | 1.54 | 1.1 | 1.24 | 3.92 | 1.31 | 1.44
16 | AUUCACCUAGGUCAUGGGGGG [Fam2.2 aminoacylation ribozyme variant] | 2.23 | 2.55 | 2 | 1.11 | 3.18 | 2.72
17 | CUACUUCAAACAAUCGGUCAA [Fam1A.1 aminoacylation ribozyme variant] | 2.24 | 0.846 | 0.996 | 6.72 | 0.712 | 0.695
18 | CAACACUUCAAGCAAUCAGUC [Fam1B.1 aminoacylation ribozyme variant] | 4.78 | 0.858 | 0.772 | 14.5 | 0.923 | 0.716
19 | AUUACCCUGGCCAUCGAGUCA [Fam2.1 aminoacylation ribozyme variant] | 0.66 | 0.78 | 0.826 | 0.47 | 0.727 | 0.714
20 | CCACACUUUAAGCAAUCAGUC [Fam1B.1 aminoacylation ribozyme variant] | 0.749 | 0.76 | 0.874 | 1.03 | 0.69 | 0.541
21 | AUAACCCUGGUCACCGAGUGA [Fam2.1 aminoacylation ribozyme variant] | 10.2 | 4.78 | 4.06 | 44 | 9.68 | 8.82
22 | CUAGUUCAAACAAUCGGCCUG [Fam1A.1 aminoacylation ribozyme variant] | 11.2 | 1.71 | 1.84 | 12.4 | 2.2 | 1.76
23 | AUUCCCCUAGGUCAUCGGGUC [Fam2.2 aminoacylation ribozyme variant] | 4 | 4.5 | 5.52 | 22.8 | 5.52 | 4.08
24 | CUACUUCACACACUCGGUCUG [Fam1A.1 aminoacylation ribozyme variant] | 1.16 | 1.42 | 1.49 | 1.31 | 1.69 | 1.42
25 | CCACACUUCGAGCAAUCAGUC [Fam1B.1 aminoacylation ribozyme variant] | 0.695 | 0.666 | 0.625 | 0.892 | 0.52 | 0.488
26 | GAGUUUGCUAGUAGUCGCAAG [Fam3.1 aminoacylation ribozyme variant] | 0.876 | 1.21 | 1.04 | 1.92 | 0.89 | 1.28

Row | Sequence | self-aminoacylation (biotinyl-Trp-oxazolone) | self-aminoacylation (biotinyl-Ile-oxazolone) | self-aminoacylation (biotinyl-Val-oxazolone) | self-aminoacylation (biotinyl-Phe-oxazolone) | self-aminoacylation (biotinyl-Leu-oxazolone) | self-aminoacylation (biotinyl-Met-oxazolone)
27 | CCACACGUCAAUCAAUCGGUC [Fam1B.1 aminoacylation ribozyme variant] | 0.926 | 1.05 | 1.1 | 1.24 | 0.966 | 1.09
28 | AUUACCCUGGUCAUACAGUGA [Fam2.1 aminoacylation ribozyme variant] | 5.95 | 2.91 | 3.03 | 14.8 | 4.57 | 4.03
29 | AAGGUUGCUAAUAGUCACAAG [Fam3.1 aminoacylation ribozyme variant] | 1.72 | 1.71 | 1.32 | 4.71 | 1.57 | 1.72
30 | AAAUGUGCUAAUAGUCGCAAG [Fam3.1 aminoacylation ribozyme variant] | 1.48 | 2.12 | 1.46 | 2.84 | 1.53 | 2.16
31 | CCACACUUCAUGCAAUCGUUC [Fam1B.1 aminoacylation ribozyme variant] | 0.373 | 0.737 | 0.699 | 0.835 | 0.513 | 0.566
32 | CUACUUCAAAUAAGCGGUCUG [Fam1A.1 aminoacylation ribozyme variant] | 0.575 | 0.958 | 0.799 | 0.945 | 0.824 | 0.797
33 | CCAUACUUCAAGCAAUGGGUC [Fam1B.1 aminoacylation ribozyme variant] | 0.627 | 1.04 | 1 | 0.918 | 0.926 | 0.972
34 | CUAUUUCAAACAGUCGGUCUG [Fam1A.1 aminoacylation ribozyme variant] | 0.682 | 0.827 | 0.8 | 0.588 | 0.843 | 0.859
35 | AUUCACCUAGGUUAUCCGGUG [Fam2.2 aminoacylation ribozyme variant] | 5.66 | 3.8 | 3.77 | 42.3 | 8.66 | 7.05
36 | AUUCACCUUGAUCAUCGGGUG [Fam2.2 aminoacylation ribozyme variant] | 4.07 | 2.22 | 2.6 | 19 | 3.83 | 3.26
37 | CUACUUCCAACACUCGGUCUG [Fam1A.1 aminoacylation ribozyme variant] | 0.796 | 0.978 | 0.958 | 0.522 | 1.01 | 1.03
38 | CAGUUUGUUAAUAGUCGCAAG [Fam3.1 aminoacylation ribozyme variant] | 1.37 | 1.57 | 1.42 | 2.25 | 1.64 | 1.74
39 | AUUACCCUUCUCAUCGAGUGA [Fam2.1 aminoacylation ribozyme variant] | 9.57 | 3.51 | 3.65 | 30.8 | 6.53 | 6.6
40 | AUUACCCUGGACAUCUAGUGA [Fam2.1 aminoacylation ribozyme variant] | 5.51 | 2.55 | 2.71 | 17 | 5.12 | 5.4
41 | ACUACCCUGGUCAUGGAGUGA [Fam2.1 aminoacylation ribozyme variant] | 3.33 | 2.86 | 2.59 | 11.6 | 3.32 | 3.35
42 | AUAACCCUGGGCAUCGAGUGA [Fam2.1 aminoacylation ribozyme variant] | 6.57 | 3 | 2.59 | 33.7 | 6 | 5.93
43 | AAUCACCUAGGUCAUCGGGUC [Fam2.2 aminoacylation ribozyme variant] | 1.21 | 1.79 | 1.63 | 7.16 | 1.37 | 1.81
44 | AUUCACCUAGGUGAUCUGGUG [Fam2.2 aminoacylation ribozyme variant] | 1.84 | 1.34 | 1.47 | 7.54 | 2.36 | 1.99
45 | AAGUUUGUUAAUAGUCGCAAA [Fam3.1 aminoacylation ribozyme variant] | 1.43 | 1.8 | 1.32 | 2.15 | 1.68 | 1.63
46 | CGACACUCCAAGCAAUCGGUC [Fam1B.1 aminoacylation ribozyme variant] | 1.19 | 1.11 | 1.11 | 0.914 | 0.842 | 0.665
47 | CUAAACUUCAAGCAAUCGGUC [Fam1B.1 aminoacylation ribozyme variant] | 15.1 | 0.956 | 1.03 | 33.1 | 1.26 | 0.876
48 | CUUCUUCAAACAAUCGCUCUG [Fam1A.1 aminoacylation ribozyme variant] | 1.55 | 0.783 | 0.928 | 1.72 | 0.823 | 0.85
49 | CUACUUCAAACACUCGGACUG [Fam1A.1 aminoacylation ribozyme variant] | 1.32 | 1.11 | 1.2 | 0.435 | 0.89 | 1.01
50 | CUACUUCAAACAAUCGCUCUU [Fam1A.1 aminoacylation ribozyme variant] | 0.632 | 0.938 | 0.856 | 0.851 | 0.539 | 0.772
51 | CGACUUCACACAAUCGGUCUG [Fam1A.1 aminoacylation ribozyme variant] | 1.01 | 1.05 | 1.14 | 1.07 | 1.23 | 0.934
